Test results published in ChEMBL document CHEMBL1137666, “Biochemical Characterization of SFC-1, a class A carbapenem-hydrolyzing beta-lactamase” (Antimicrob Agents Chemother, 2007).

Columns and labels:
[1] = substrate: CC(=O)OCC1=C(C(=O)O)N2C(=O)[C@@H](NC(=O)Cc3cccs3)[C@H]2SC1; test: (§1) Ratio of Kcat to Km for Klebsiella pneumoniae KPC-1 beta lactamase expressed in Escherichia coli DH5alpha by SDS-PAGE
[2] = substrate: C[C@H]1[C@H](NC(=O)/C(=N\OC(C)(C)C(=O)O)c2csc(N)n2)C(=O)N1S(=O)(=O)O; test: as §1
[3] = substrate: C[C@@H](O)[C@H]1C(=O)N2C(C(=O)O)=C(SCCNC=N)C[C@H]12; test: as §1
[4] = substrate: CC1(C)S[C@@H]2[C@H](NC(=O)[C@H](N)c3ccccc3)C(=O)N2[C@H]1C(=O)O; test: as §1
[5] = substrate: CC(C)(O/N=C(\C(=O)N[C@@H]1C(=O)N2C(C(=O)[O-])=C(C[n+]3ccccc3)CS[C@H]12)c1csc(N)n1)C(=O)O; test: as §1
[6] = substrate: CO[C@@]1(NC(=O)Cc2cccs2)C(=O)N2C(C(=O)O)=C(COC(N)=O)CS[C@@H]21; test: as §1
[7] = substrate: CO/N=C(\C(=O)N[C@@H]1C(=O)N2C(C(=O)O)=C(COC(C)=O)CS[C@H]12)c1csc(N)n1; test: as §1
[8] = substrate: C[C@@H](O)[C@H]1C(=O)N2C(C(=O)O)=C(S[C@@H]3CN[C@H](C(=O)N(C)C)C3)[C@H](C)[C@H]12; test: as §1
[9] = substrate: CCN1CCN(C(=O)N[C@@H](C(=O)N[C@@H]2C(=O)N3[C@@H]2SC(C)(C)[C@@H]3C(=O)O)c2ccccc2)C(=O)C1=O; test: as §1
[10] = substrate: CC(=O)OCC1=C(C(=O)O)N2C(=O)[C@@H](NC(=O)Cc3cccs3)[C@H]2SC1; test: (§2) Activity of Klebsiella pneumoniae KPC-1 beta lactamase expressed in Escherichia coli DH5alpha by SDS-PAGE
[11] = substrate: C[C@H]1[C@H](NC(=O)/C(=N\OC(C)(C)C(=O)O)c2csc(N)n2)C(=O)N1S(=O)(=O)O; test: as §2
[12] = substrate: C[C@@H](O)[C@H]1C(=O)N2C(C(=O)O)=C(SCCNC=N)C[C@H]12; test: as §2
[13] = substrate: CC1(C)S[C@@H]2[C@H](NC(=O)[C@H](N)c3ccccc3)C(=O)N2[C@H]1C(=O)O; test: as §2
[14] = substrate: CC(C)(O/N=C(\C(=O)N[C@@H]1C(=O)N2C(C(=O)[O-])=C(C[n+]3ccccc3)CS[C@H]12)c1csc(N)n1)C(=O)O; test: as §2
[15] = substrate: CO[C@@]1(NC(=O)Cc2cccs2)C(=O)N2C(C(=O)O)=C(COC(N)=O)CS[C@@H]21; test: as §2
[16] = substrate: CO/N=C(\C(=O)N[C@@H]1C(=O)N2C(C(=O)O)=C(COC(C)=O)CS[C@H]12)c1csc(N)n1; test: as §2
[17] = substrate: C[C@@H](O)[C@H]1C(=O)N2C(C(=O)O)=C(S[C@@H]3CN[C@H](C(=O)N(C)C)C3)[C@H](C)[C@H]12; test: as §2
[18] = substrate: CCN1CCN(C(=O)N[C@@H](C(=O)N[C@@H]2C(=O)N3[C@@H]2SC(C)(C)[C@@H]3C(=O)O)c2ccccc2)C(=O)C1=O; test: as §2
[19] = substrate: CC(=O)OCC1=C(C(=O)O)N2C(=O)[C@@H](NC(=O)Cc3cccs3)[C@H]2SC1; test: (§3) Activity of Serratia fonticola UTAD54 SFC1 beta lactamase expressed in Escherichia coli BL21(DE3) by SDS-PAGE
[20] = substrate: C[C@H]1[C@H](NC(=O)/C(=N\OC(C)(C)C(=O)O)c2csc(N)n2)C(=O)N1S(=O)(=O)O; test: as §3
[21] = substrate: C[C@@H](O)[C@H]1C(=O)N2C(C(=O)O)=C(SCCNC=N)C[C@H]12; test: as §3
[22] = substrate: CC1(C)S[C@@H]2[C@H](NC(=O)[C@H](N)c3ccccc3)C(=O)N2[C@H]1C(=O)O; test: as §3
[23] = substrate: CC(C)(O/N=C(\C(=O)N[C@@H]1C(=O)N2C(C(=O)[O-])=C(C[n+]3ccccc3)CS[C@H]12)c1csc(N)n1)C(=O)O; test: as §3
[24] = substrate: CO[C@@]1(NC(=O)Cc2cccs2)C(=O)N2C(C(=O)O)=C(COC(N)=O)CS[C@@H]21; test: as §3
[25] = substrate: CO/N=C(\C(=O)N[C@@H]1C(=O)N2C(C(=O)O)=C(COC(C)=O)CS[C@H]12)c1csc(N)n1; test: as §3
[26] = substrate: C[C@@H](O)[C@H]1C(=O)N2C(C(=O)O)=C(S[C@@H]3CN[C@H](C(=O)N(C)C)C3)[C@H](C)[C@H]12; test: as §3
[27] = substrate: CCN1CCN(C(=O)N[C@@H](C(=O)N[C@@H]2C(=O)N3[C@@H]2SC(C)(C)[C@@H]3C(=O)O)c2ccccc2)C(=O)C1=O; test: as §3
[28] = substrate: CC(=O)OCC1=C(C(=O)O)N2C(=O)[C@@H](NC(=O)Cc3cccs3)[C@H]2SC1; test: (§4) Ratio of Kcat to Km for Serratia fonticola UTAD54 SFC1 beta lactamase expressed in Escherichia coli BL21(DE3) by SDS-PAGE
[29] = substrate: C[C@H]1[C@H](NC(=O)/C(=N\OC(C)(C)C(=O)O)c2csc(N)n2)C(=O)N1S(=O)(=O)O; test: as §4
[30] = substrate: C[C@@H](O)[C@H]1C(=O)N2C(C(=O)O)=C(SCCNC=N)C[C@H]12; test: as §4
[31] = substrate: CC1(C)S[C@@H]2[C@H](NC(=O)[C@H](N)c3ccccc3)C(=O)N2[C@H]1C(=O)O; test: as §4
[32] = substrate: CC(C)(O/N=C(\C(=O)N[C@@H]1C(=O)N2C(C(=O)[O-])=C(C[n+]3ccccc3)CS[C@H]12)c1csc(N)n1)C(=O)O; test: as §4
[33] = substrate: CO[C@@]1(NC(=O)Cc2cccs2)C(=O)N2C(C(=O)O)=C(COC(N)=O)CS[C@@H]21; test: as §4
[34] = substrate: CO/N=C(\C(=O)N[C@@H]1C(=O)N2C(C(=O)O)=C(COC(C)=O)CS[C@H]12)c1csc(N)n1; test: as §4
[35] = substrate: C[C@@H](O)[C@H]1C(=O)N2C(C(=O)O)=C(S[C@@H]3CN[C@H](C(=O)N(C)C)C3)[C@H](C)[C@H]12; test: as §4
[36] = substrate: CCN1CCN(C(=O)N[C@@H](C(=O)N[C@@H]2C(=O)N3[C@@H]2SC(C)(C)[C@@H]3C(=O)O)c2ccccc2)C(=O)C1=O; test: as §4

B1: Carbapenem-hydrolyzing beta-lactamase KPC (Klebsiella pneumoniae), Q9F663 (protein)
chain: MSLYRRLVLLSCLSWPLAGFSATALTNLVAEPFAKLEQDFGGSIGVYAMDTGSGATVSYRAEERFPLCSSFKGFLAAAVLARSQQQAGLLDTPIRYGKNALVPWSPISEKYLTTGMTVAELSAAAVQYSDNAAANLLLKELGGPAGLTAFMRSIGDTTFRLDRWELELNSAIPGDARDTSSPRAVTESLQKLTLGSALAAPQRQQFVDWLKGNTTGNHRIRAAVPADWAVGDKTGTCGVYGTANDYAVVWPTGRAPIVLAVYTRAPNKDDKHSEAVIAAAARLALEGLGVNGQ
- kcat/Km [1]: 1.4e+06 M⁻¹ s⁻¹
- kcat/Km [2]: 70000 M⁻¹ s⁻¹
- kcat/Km [3]: 150000 M⁻¹ s⁻¹
- kcat/Km [4]: 850000 M⁻¹ s⁻¹
- kcat/Km [5]: 1000 M⁻¹ s⁻¹
- kcat/Km [6]: 2000 M⁻¹ s⁻¹
- kcat/Km [7]: 90000 M⁻¹ s⁻¹
- kcat/Km [8]: 250000 M⁻¹ s⁻¹
- kcat/Km [9]: 1.33e+06 M⁻¹ s⁻¹
- Km [10]: 53 µM
- kcat [10]: 75 s⁻¹
- Km [11]: 310 µM
- kcat [11]: 20 s⁻¹
- Km [12]: 81 µM
- kcat [12]: 12 s⁻¹
- Km [13]: 130 µM
- kcat [13]: 110 s⁻¹
- Km [14]: 94 µM
- kcat [14]: 0.1 s⁻¹
- Km [15]: 120 µM
- kcat [15]: 0.26 s⁻¹
- Km [16]: 160 µM
- kcat [16]: 14 s⁻¹
- Km [17]: 12 µM
- kcat [17]: 3 s⁻¹
- Km [18]: 18 µM
- kcat [18]: 24 s⁻¹

B2: Carbapenem-hydrolizing beta-lactamase SFC-1 (Serratia fonticola), Q6JP75 (protein)
chain: MSRTGRLSVFFSAIFPLLTLTNMAEAASQPPQVTVDKLKRLENDFGGRIGVYAIDTGSNKTFGYRANERFPLCSSFKGFLAAAVLSKSQQQEGLLNQRIRYDNRVMEPHSPVTEKQITTGMTVAELSAATLQYSDNGAANLLLEKLIGGPEGMTSFMRSIGDNVFRLDRWELELNSAIPGDDRDTSTPKAVAESMQKLAFGNVLGLTERHQLMDWFKGNTTGGARIRASVPANWVVGDKTGTCGVYGTANDYAVIWPVGHAPIVLAVYTSKPDKNSKHSDAVIADASRIVLESFNIDALRMATGKSIGF
- Km [19]: 129 µM
- kcat [19]: 280 s⁻¹
- Km [20]: 484 µM
- kcat [20]: 162 s⁻¹
- Km [21]: 82 µM
- kcat [21]: 54 s⁻¹
- Km [22]: 176 µM
- kcat [22]: 155 s⁻¹
- Km [23]: 52 µM
- kcat [23]: 2.1 s⁻¹
- Km [24]: 77 µM
- kcat [24]: 4.2 s⁻¹
- Km [25]: 89 µM
- kcat [25]: 8.3 s⁻¹
- Km [26]: 26 µM
- kcat [26]: 6.5 s⁻¹
- Km [27]: 38 µM
- kcat [27]: 44.7 s⁻¹
- kcat/Km [28]: 2.17e+06 M⁻¹ s⁻¹
- kcat/Km [29]: 335000 M⁻¹ s⁻¹
- kcat/Km [30]: 659000 M⁻¹ s⁻¹
- kcat/Km [31]: 881000 M⁻¹ s⁻¹
- kcat/Km [32]: 40400 M⁻¹ s⁻¹
- kcat/Km [33]: 54500 M⁻¹ s⁻¹
- kcat/Km [34]: 93300 M⁻¹ s⁻¹
- kcat/Km [35]: 250000 M⁻¹ s⁻¹
- kcat/Km [36]: 1.19e+06 M⁻¹ s⁻¹
